The values below come from US20090311267A1.

One may read the IC50 as the concentration needed to halve the response being measured. A low value points to greater potency.

Assay [1] deals with human collagen type I (human) (UniProt P02452). In words: ex vivo ELISA, baboon plasma vWF on human collagen type I, % of pre-sample; 82D6A3 300 µg/kg, 150 min. A general note: An ELISA detects its analyte on a solid surface through an enzyme-linked reagent.
For assay [2] the target is unchanged. Nature of the assay: ex vivo ELISA, baboon plasma vWF on human collagen type I, % of pre-sample; 82D6A3 600 µg/kg, 60 min.
Assay [3] has the same target. Nature of the assay: ex vivo ELISA, baboon plasma vWF on human collagen type I, % of pre-sample; 82D6A3 600 µg/kg, 30 min.
Assay [4] shares this target. In words: ex vivo ELISA, baboon plasma vWF on human collagen type I, % of pre-sample; 82D6A3 300 µg/kg, 24 h.
Assay [5] has the same target. Nature of the assay: ex vivo ELISA, baboon plasma vWF on human collagen type I, % of pre-sample; 82D6A3 600 µg/kg, 24 h.
The target is the same in assay [6]. Nature of the assay: ex vivo ELISA, baboon plasma vWF on human collagen type I, % of pre-sample; 82D6A3 300 µg/kg, 300 min.
The target is the same in assay [7]. Nature of the assay: ex vivo ELISA, baboon plasma vWF on human collagen type I, % of pre-sample; 82D6A3 300 µg/kg, 48 h.
For assay [8] the target is unchanged. Nature of the assay: ex vivo ELISA, baboon plasma vWF on human collagen type I, % of pre-sample; 82D6A3 600 µg/kg, 150 min.
The target is the same in assay [9]. In words: ex vivo ELISA, baboon plasma vWF on human collagen type I, % of pre-sample; 82D6A3 300 µg/kg, 30 min.
Assay [10] has the same target. Nature of the assay: ex vivo ELISA, baboon plasma vWF on human collagen type I, % of pre-sample; 82D6A3 100 µg/kg, 60 min.
Assay [11] shares this target. In words: ex vivo ELISA, baboon plasma vWF on human collagen type I, % of pre-sample; 82D6A3 300 µg/kg, 60 min.
For assay [12] the target is unchanged. Nature of the assay: ex vivo ELISA, baboon plasma vWF on human collagen type I, % of pre-sample; 82D6A3 600 µg/kg group, 0 min.
For assay [13] the target is unchanged. In words: ex vivo ELISA, baboon plasma vWF on human collagen type I, % of pre-sample; 82D6A3 100 µg/kg group, 0 min.
Assay [14] has the same target. Nature of the assay: ex vivo ELISA, baboon plasma vWF on human collagen type I, % of pre-sample; 82D6A3 600 µg/kg, 300 min.
Assay [15] has the same target. In words: ex vivo ELISA, baboon plasma vWF on human collagen type I, % of pre-sample; 82D6A3 300 µg/kg group, 0 min.
For assay [16] the target is unchanged. Nature of the assay: ex vivo ELISA, baboon plasma vWF on human collagen type I, % of pre-sample; 82D6A3 100 µg/kg, 30 min.
In assay [17] the target is mouse GPIIb/IIIa (on mouse platelets) (mouse) (UniProt Q9QUM0). In words: receptor occupancy on platelets of mice after 20 µg JON/A F(ab)2 i.v.
Chain of mouse GPIIb/IIIa (on mouse platelets) (mouse) (Q9QUM0 32-1033, chain 1 of 2): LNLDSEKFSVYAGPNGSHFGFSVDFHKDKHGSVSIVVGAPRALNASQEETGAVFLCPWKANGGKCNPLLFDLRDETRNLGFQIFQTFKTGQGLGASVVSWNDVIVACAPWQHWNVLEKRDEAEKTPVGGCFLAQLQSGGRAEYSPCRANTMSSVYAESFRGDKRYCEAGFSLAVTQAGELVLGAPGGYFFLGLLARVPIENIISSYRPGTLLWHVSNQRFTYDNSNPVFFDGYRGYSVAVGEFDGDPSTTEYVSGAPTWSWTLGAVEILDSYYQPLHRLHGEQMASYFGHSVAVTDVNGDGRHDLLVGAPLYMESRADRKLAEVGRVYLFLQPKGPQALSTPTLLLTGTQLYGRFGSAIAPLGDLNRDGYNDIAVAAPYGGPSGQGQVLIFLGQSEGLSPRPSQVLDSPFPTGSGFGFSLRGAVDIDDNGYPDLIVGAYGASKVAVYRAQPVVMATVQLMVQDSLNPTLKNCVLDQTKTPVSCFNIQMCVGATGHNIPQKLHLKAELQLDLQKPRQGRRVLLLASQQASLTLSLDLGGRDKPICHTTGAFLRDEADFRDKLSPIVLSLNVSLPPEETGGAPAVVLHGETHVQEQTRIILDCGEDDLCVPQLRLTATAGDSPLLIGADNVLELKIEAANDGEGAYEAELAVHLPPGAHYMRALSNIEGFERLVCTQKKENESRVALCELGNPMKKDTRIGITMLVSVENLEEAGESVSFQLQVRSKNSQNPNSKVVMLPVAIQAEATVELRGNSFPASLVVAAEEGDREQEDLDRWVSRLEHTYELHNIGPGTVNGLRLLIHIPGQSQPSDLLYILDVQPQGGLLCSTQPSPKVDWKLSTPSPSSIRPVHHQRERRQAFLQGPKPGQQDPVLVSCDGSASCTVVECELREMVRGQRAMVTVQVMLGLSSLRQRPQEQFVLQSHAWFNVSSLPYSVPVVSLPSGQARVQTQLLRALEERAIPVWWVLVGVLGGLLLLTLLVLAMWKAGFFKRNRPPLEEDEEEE
Chain of mouse GPIIb/IIIa (on mouse platelets) (mouse) (O54890 26-787, chain 2 of 2, further chain): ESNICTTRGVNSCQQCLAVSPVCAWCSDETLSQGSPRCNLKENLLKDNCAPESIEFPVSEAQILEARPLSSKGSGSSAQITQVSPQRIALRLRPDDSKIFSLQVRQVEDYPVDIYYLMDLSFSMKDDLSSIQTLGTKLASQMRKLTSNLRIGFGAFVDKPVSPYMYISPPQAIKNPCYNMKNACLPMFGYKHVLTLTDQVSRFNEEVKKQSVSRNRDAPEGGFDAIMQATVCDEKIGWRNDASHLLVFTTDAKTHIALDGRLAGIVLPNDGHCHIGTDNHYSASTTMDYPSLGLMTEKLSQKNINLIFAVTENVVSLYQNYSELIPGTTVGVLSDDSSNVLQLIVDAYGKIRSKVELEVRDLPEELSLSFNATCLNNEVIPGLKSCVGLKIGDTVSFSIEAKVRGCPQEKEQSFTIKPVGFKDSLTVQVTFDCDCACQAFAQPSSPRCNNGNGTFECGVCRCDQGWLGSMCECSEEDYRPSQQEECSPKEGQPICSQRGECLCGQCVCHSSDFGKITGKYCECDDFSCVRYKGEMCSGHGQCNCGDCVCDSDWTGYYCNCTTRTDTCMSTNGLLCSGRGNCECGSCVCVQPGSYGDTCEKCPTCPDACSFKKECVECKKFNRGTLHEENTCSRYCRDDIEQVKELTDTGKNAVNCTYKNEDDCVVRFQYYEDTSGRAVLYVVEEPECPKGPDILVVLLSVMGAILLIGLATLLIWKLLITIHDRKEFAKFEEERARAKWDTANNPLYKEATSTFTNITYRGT
For assay [18] the target is unchanged. Nature of the assay: receptor occupancy on platelets of mice after 10 µg JON/A F(ab)2 i.v.
For assay [19] the target is unchanged. Nature of the assay: receptor occupancy on platelets of mice after 100 µg JON/A F(ab)2 i.v.
Assay [20] concerns the target purified human von Willebrand factor (human) (UniProt P04275). Nature of the assay: ELISA: inhibition of plasma or purified vWF binding to coated human collagen type I.
Assay [21] shares this target. In words: cell-based or functional assay.
Assay [22] addresses baboon platelet GPIb (on baboon platelets) (baboon (Papio ursinus)). In words: GPIb occupancy on baboon platelets, 150 minutes after bolus of 4 mg/kg.
Assay [23] shares this target. Nature of the assay: GPIb occupancy on baboon platelets, 30 minutes after bolus of 600 µg/kg.
Assay [24] shares this target. In words: GPIb occupancy on baboon platelets, 150 minutes after bolus of 2 mg/kg.
For assay [25] the target is unchanged. In words: GPIb occupancy on baboon platelets, 300 minutes after bolus of 4 mg/kg.
Assay [26] has the same target. In words: GPIb occupancy on baboon platelets, 300 minutes after bolus of 2 mg/kg.
Assay [27] has the same target. Nature of the assay: GPIb occupancy on baboon platelets, 30 minutes after bolus of 4 mg/kg.
Assay [28] has the same target. In words: GPIb occupancy on baboon platelets, 300 minutes after bolus of 600 µg/kg.
Assay [29] shares this target. Nature of the assay: GPIb occupancy on baboon platelets, 60 minutes after bolus of 2 mg/kg.
Assay [30] shares this target. In words: GPIb occupancy on baboon platelets, 60 minutes after bolus of 600 µg/kg.
Assay [31] has the same target. In words: 125I-labelled fragment on baboon platelets in plasma.
For assay [32] the target is unchanged. In words: GPIb occupancy on baboon platelets, 150 minutes after bolus of 600 µg/kg.
Assay [33] has the same target. In words: cell-based or functional assay.
For assay [34] the target is unchanged. In words: GPIb occupancy on baboon platelets, 60 minutes after bolus of 4 mg/kg.
Assay [35] shares this target. Nature of the assay: GPIb occupancy on baboon platelets, 30 minutes after bolus of 2 mg/kg.

Chain of baboon platelet GPIb (on baboon platelets) (baboon (Papio ursinus)) (A0A096 entry or part of it limits assumed, form in doubt): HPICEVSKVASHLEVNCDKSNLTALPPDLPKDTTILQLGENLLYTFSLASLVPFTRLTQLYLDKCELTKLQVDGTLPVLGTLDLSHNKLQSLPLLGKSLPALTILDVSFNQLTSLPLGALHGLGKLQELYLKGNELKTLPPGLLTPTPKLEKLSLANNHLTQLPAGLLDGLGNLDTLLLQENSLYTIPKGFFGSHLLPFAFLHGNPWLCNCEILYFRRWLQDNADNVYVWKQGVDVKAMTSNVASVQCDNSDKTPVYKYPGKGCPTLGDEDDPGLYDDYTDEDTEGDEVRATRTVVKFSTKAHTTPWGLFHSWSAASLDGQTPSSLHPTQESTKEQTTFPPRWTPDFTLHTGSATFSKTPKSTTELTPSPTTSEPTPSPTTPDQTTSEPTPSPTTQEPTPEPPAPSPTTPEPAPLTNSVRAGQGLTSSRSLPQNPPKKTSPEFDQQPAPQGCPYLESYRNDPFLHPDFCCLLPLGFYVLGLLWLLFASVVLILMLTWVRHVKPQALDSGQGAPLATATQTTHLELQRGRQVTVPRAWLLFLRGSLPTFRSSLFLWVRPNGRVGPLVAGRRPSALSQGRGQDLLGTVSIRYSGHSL
Chain of human collagen type I (human) (P02452 162-1218, chain 1 of 2): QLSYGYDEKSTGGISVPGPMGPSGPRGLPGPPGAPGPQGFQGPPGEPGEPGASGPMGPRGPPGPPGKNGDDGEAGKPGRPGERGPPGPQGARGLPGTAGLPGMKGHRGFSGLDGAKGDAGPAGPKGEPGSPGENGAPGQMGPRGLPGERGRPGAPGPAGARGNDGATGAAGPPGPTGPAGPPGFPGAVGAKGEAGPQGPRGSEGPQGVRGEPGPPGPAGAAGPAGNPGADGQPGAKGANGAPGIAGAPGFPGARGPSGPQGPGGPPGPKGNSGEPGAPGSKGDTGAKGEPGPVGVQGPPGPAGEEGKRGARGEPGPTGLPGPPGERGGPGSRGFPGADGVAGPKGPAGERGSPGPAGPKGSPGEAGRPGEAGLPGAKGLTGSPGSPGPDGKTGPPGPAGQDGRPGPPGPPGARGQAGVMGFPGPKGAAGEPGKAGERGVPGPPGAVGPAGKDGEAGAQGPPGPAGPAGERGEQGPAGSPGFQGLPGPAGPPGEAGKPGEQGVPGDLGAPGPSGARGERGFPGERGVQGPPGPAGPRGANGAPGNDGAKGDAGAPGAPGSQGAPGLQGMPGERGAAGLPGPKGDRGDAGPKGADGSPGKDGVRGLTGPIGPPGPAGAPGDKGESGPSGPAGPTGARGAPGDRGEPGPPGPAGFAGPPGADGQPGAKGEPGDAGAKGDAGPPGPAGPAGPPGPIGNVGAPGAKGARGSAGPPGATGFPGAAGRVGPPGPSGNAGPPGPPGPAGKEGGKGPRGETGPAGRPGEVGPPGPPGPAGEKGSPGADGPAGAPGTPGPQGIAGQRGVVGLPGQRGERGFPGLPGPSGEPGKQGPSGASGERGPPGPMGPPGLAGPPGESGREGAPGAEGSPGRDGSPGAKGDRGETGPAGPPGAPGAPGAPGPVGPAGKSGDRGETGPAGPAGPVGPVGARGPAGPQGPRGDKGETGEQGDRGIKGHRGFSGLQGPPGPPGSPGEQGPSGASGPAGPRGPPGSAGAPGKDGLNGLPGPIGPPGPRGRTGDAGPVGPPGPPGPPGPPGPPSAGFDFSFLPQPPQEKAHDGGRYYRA
Chain of human collagen type I (human) (P08123 80-1119, chain 2 of 2, further chain): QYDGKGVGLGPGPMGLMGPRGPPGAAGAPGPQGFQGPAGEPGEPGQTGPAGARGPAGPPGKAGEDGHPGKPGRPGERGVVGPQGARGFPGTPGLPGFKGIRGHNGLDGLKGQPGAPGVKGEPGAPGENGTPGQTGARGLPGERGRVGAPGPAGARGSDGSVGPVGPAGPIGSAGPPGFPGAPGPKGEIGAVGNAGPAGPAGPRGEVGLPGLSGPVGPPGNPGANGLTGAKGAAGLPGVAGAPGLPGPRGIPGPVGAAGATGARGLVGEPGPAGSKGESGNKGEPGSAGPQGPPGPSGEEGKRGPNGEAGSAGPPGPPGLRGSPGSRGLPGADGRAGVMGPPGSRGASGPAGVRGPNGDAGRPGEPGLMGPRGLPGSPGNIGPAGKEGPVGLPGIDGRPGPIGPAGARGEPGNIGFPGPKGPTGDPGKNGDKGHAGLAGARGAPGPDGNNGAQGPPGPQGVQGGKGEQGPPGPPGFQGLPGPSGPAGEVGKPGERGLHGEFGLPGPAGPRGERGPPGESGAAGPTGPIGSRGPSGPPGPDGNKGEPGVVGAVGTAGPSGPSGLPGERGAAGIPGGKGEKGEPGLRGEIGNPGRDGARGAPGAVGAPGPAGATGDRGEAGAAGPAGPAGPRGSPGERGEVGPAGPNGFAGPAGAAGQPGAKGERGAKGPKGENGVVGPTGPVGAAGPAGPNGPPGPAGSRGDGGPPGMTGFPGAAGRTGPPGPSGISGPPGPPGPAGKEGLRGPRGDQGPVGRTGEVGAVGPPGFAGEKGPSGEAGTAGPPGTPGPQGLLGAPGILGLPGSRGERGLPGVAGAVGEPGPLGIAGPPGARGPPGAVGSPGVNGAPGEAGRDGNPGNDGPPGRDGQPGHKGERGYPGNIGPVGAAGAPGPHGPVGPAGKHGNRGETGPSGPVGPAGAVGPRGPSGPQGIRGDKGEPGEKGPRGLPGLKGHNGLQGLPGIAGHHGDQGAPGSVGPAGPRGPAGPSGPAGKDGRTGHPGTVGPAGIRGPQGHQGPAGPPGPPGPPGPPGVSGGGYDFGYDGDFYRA

For “baboon vWF (in baboon plasma), A0A096N8H2 764-2813”, the collagen binding (%) in assay [1] is 4%; in assay [2], 3.5%; in assay [3], 4%; in assay [4] it was 91%; in [5], 45%; in assay [6], 4%. Besides, the collagen binding (%) in assay [7] was 93%; in assay [8] it was 3.52%; in assay [9] it was 4%; in assay [10], 69%; in assay [11] it was 4%; in assay [12] it was 100%. In addition, the collagen binding (%) was found to be 101% in assay [13], 4% in assay [14], 101% in assay [15] and 64% in [16].

Take JON/A F(ab)2 (antibody): the Receptor occupancy, % is 78.4% in [17], 67.8% in [18] and greater than 95% in assay [19].

Take 82D6A3 F(ab) fragment (Fab): in [20], the IC50 is 1 µg/mL. For the same substance, the concentration for complete inhibition of platelet deposition on human collagen type I under flow, shear rate 1300 s^-1 in [21] stood at 10 µg/mL.

In assay [22], 6B4 Fab fragments displayed a receptor occupancy of 45.6%. The receptor occupancy in assay [23] was 34.5%. In addition, the receptor occupancy in [24] worked out at 43.9%. This substance showed a receptor occupancy in [25] of 31.3%. Also, the receptor occupancy in assay [26] amounted to 12.9%. The same substance returned a receptor occupancy in [27] of 84%. The substance further had a receptor occupancy in assay [28] of 6.3%. In assay [29], this substance came in with a receptor occupancy of 64.8%. The receptor occupancy in assay [30] came out at 28.6%. The KD50 (half saturation) in assay [31] is 49.2 nmol/L. Further, in [32], the receptor occupancy was found to be 17.1%. Moreover, in assay [33], the % inhibition of ex vivo ristocetin-induced (1.5 mg/mL) platelet agglutination; after 160 µg/kg, time 270 min amounted to 8%; the % inhibition of ex vivo ristocetin-induced (1.5 mg/mL) platelet agglutination; after 640 µg/kg, time 270 min was determined as 15%; the % inhibition of ex vivo ristocetin-induced (1.5 mg/mL) platelet agglutination; after 640 µg/kg, time 24 h amounted to 7%; the % inhibition of ex vivo ristocetin-induced (1.5 mg/mL) platelet agglutination; dose 80 µg/kg, time 90 min was found to be 26%. In assay [33], this substance yielded a % inhibition of ex vivo ristocetin-induced (1.5 mg/mL) platelet agglutination; dose 160 µg/kg, time 150 min of 47%; a % inhibition of ex vivo ristocetin-induced (1.5 mg/mL) platelet agglutination; dose 320 µg/kg, time 90 min of 25%; a % inhibition of ex vivo ristocetin-induced (1.5 mg/mL) platelet agglutination; dose 640 µg/kg, time 150 min of 80%; an IC50 of ristocetin-induced baboon platelet aggregation of 40 nM. In [33], the ex vivo ristocetin-induced platelet aggregation, % of the response before injection; 600 µg/kg, 60 minutes was determined as 16.8%; the ex vivo ristocetin-induced platelet aggregation, % of the response before injection; 600 µg/kg, 150 minutes came out at 68.8%; the ex vivo ristocetin-induced platelet aggregation, % of the response before injection; 2 mg/kg, 60 minutes was 5.2%; the ex vivo ristocetin-induced platelet aggregation, % of the response before injection; 2 mg/kg, 150 minutes was determined as 19.2%. For the same substance, in assay [33], the ex vivo ristocetin-induced platelet aggregation, % of the response before injection; 4 mg/kg, 60 minutes came to 2% and the ex vivo ristocetin-induced platelet aggregation, % of the response before injection; 4 mg/kg, 150 minutes amounted to 16%. In assay [34], this substance had a receptor occupancy of 79%. In assay [35], this substance registered a receptor occupancy of 69.3%.
